In US20240400703A1 (Genmab, published 2024):

Biological target: T1, mouse OX40 expressed on ExpiCHO-S cells (mouse, UniProt P47741 20-272)
T1 construct: full-length entry; also called OX40mm; wild-type mouse OX40
T1 sequence: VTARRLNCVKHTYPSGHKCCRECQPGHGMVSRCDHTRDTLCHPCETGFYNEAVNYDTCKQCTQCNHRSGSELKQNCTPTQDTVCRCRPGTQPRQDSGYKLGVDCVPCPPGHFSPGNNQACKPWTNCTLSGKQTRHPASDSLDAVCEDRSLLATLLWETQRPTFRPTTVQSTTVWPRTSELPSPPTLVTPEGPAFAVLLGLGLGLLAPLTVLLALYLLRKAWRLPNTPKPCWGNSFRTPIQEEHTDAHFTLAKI
Assay: not described (data not shown)

B1: IgG1-CD134-003-FEAL (antibody)
heavy: EQLKETGGGLVQPGGSLTLSCKASGFDFSSGYMSWVRQAPGKGLEWIGYIDPVFGSTYYASWVNGRFAISSHNAQNTLYLQLNSLTAADTATYFCARDLRAFYSGWGGINLWGPGTLVTVSSASTKGPSVFPLAPSSKSTSGGTAALGCLVKDYFPEPVTVSWNSGALTSGVHTFPAVLQSSGLYSLSSVVTVPSSSLGTQTYICNVNHKPSNTKVDKRVEPKSCDKTHTCPPCPAPEFEGGPSVFLFPPKPKDTLMISRTPEVTCVVVAVSHEDPEVKFNWYVDGVEVHNAKTKPREEQYNSTYRVVSVLTVLHQDWLNGKEYKCKVSNKALPAPIEKTISKAKGQPREPQVYTLPPSREEMTKNQVSLTCLVKGFYPSDIAVEWESNGQPENNYKTTPPVLDSDGSFLLYSKLTVDKSRWQQGNVFSCSVMHEALHNHYTQKSLSLSPG
light: AAVLTQTPSPVSAAVGGTVTIKCQSSQIVVNNNFLSWYQQKPGQPPKLLIYDASNLASGVPDRFSGSGSGTQFTLTISGVQSDDAATYYCLGGYDDDAENAFGGGTEVVVQRTVAAPSVFIFPPSDEQLKSGTASVVCLLNNFYPREAKVQWKVDNALQSGNSQESVTEQDSKDSTYSLSSTLTLSKADYEKHKVYACEVTHQGLSSPVTKSFNRGEC
notes: also called IgG1-CD134-003-L234F-L235E-D265A-F405L
- binding result: no binding
